Our source for the peptide exchange yield values is patent publication US20170037110A1 (IMMATICS BIOTECHNOLOGIES, published 2017).

Some results are limits rather than exact numbers.

In the experiment the target is T1, HLA-A*02:01 (human).
T1 construct: monomers captured on streptavidin plates; also called MHC class I
The experiment is described as follows: UV peptide exchange ELISA. In outline: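 Peptide-MHC complexes formed by UV-triggered exchange of a cleavable peptide for the test peptide, with stabilised complexes indicating binding. Exchange products diluted 100 fold onto streptavidin-coated wells, 1h at 37° C.; HRP anti-β2m (2 μg/ml), TMB, absorbance at 450 nm gives exchange yield.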
In general terms: An ELISA detects its analyte on a solid surface through an enzyme-linked reagent.

The molecule GLAPFTEGISFV returned a peptide exchange yield of 50 to 75%. Take ALLSMTFPL: the peptide exchange yield is not below 75%.

Molecule FLVDTPLARA gave a peptide exchange yield not below 75%. Next, VLDELDMEL: 20 to 50%. Then ALPVSLPQI, with 50 to 75%; and FLYDEIEAEV, with 50 to 75%. Next, VLFDDELLMV: 50 to 75%. Molecule FIMPATVADATAV gave a peptide exchange yield of 50 to 75%. Next, VMITKLVEV: 50 to 75%; FLPDANSSV: 20 to 50%; FLPEALDFV: 50 to 75%.

VLLDDIFAQL: the peptide exchange yield was 50 to 75%. Next, ALLQEGEVYSA: 50 to 75%; SQIALNEKLVNL: 50 to 75%. Then VLADIELAQA, with 50 to 75%. Then AILPQLFMV, with not below 75%; and FLVTLNNVEV, with not below 75%; and GLWEIENNPTVKA, with not below 75%.

The molecule HLLSELEAAPYL had a peptide exchange yield not below 75%.

Regarding KMFEFVEPLL, the peptide exchange yield was not below 75%.

In the case of ILLTAIVQV, the peptide exchange yield fell in the range of 50 to 75%.

YLISELEAA showed a peptide exchange yield of 50 to 75%. For TLMTSLPAL, the peptide exchange yield lay in the range of 50 to 75%. IISDLTIAL: the peptide exchange yield lay within 50 to 75%. SLAALVVHV showed a peptide exchange yield of 50 to 75%. Then ILLERLWYV, with 50 to 75%; and FLVEDLVDSL, with 50 to 75%.

For the molecule ALIAEGIALV, the peptide exchange yield is 50 to 75%. Consider GLFEDVTQPGILL, for which the peptide exchange yield is not below 75%. Next, RMIEYFIDV: 50 to 75%; YLLETSGNL: 50 to 75%; FMEGAIIYV: 50 to 75%. Next, SIANFSEFYV: not below 75%; ALNDQVFEI: 50 to 75%. Next, ALVNVQIPL: 50 to 75%. As for QLALKVEGV, the peptide exchange yield is 50 to 75%.

As to YSLSSVVTV, the peptide exchange yield is 50 to 75%. Then YLQDVVEQA, with 50 to 75%. Regarding SLSDGLEEV, the peptide exchange yield fell in the range of 20 to 50%. Regarding SLEPQIQPV, the peptide exchange yield fell in the range of 20 to 50%. Next, TLTKVLVAL: 50 to 75%. Then ALLGQTFSL, with 50 to 75%; and GLFDGVPTTA, with 50 to 75%; and SQYSGQLHEV, with 50 to 75%.

Molecule GLINTGVLSV gave a peptide exchange yield of 20 to 50%. Next, RLYTGMHTV: 50 to 75%.

KVDTVWVNV displayed a peptide exchange yield of 50 to 75%.

IMEENPGIFAV gave a peptide exchange yield of 50 to 75%.

MTLGQIYYL: the peptide exchange yield fell in the range of 50 to 75%.
